Laboratory results as given in the supplement of paper PMC5998384.

Experiments:
HeLa Kyoto [1] = assay: solubility in G1/S (NP-40 vs SDS abundance) (log2 ratio); higher = more soluble; conditions: cell cycle stage: G1/S
HeLa Kyoto [2] = assay: solubility change mitosis vs G1/S (difference of NP-40 vs SDS log2 ratios) (log2 ratio difference); higher = more soluble in mitosis
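For solubility change mitosis vs G1/S (difference of NP-40 vs SDS log2 ratios) in this document: synchronized HeLa Kyoto cells (double thymidine block for G1/S, nocodazole release for mitosis), protein amounts in NP-40 versus SDS lysates quantified by mass spectrometry, three biological replicates.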
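For solubility in G1/S (NP-40 vs SDS abundance) in this document: HeLa Kyoto cells arrested at G1/S by double thymidine block, proteins quantified by TMT10plex mass spectrometry in mild NP-40 versus SDS extracts, three biological replicates.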

Sequence of PCBD2 (chain, as listed by the source): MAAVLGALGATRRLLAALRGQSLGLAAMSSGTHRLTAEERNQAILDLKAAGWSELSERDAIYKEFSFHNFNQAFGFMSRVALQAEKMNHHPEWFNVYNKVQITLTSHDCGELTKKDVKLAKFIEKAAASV

Substance	solubility in G1/S (log2) (HeLa Kyoto [1])	solubility change mitosis (log2) (HeLa Kyoto [2])
MRPWTGSWRWIMLILFAWGTLLFYIGGHLVRDNDHPDHSSRELSKILAKLERLKQQNEDLRRMAESLRIPEGPIDQGPAIGRVRVLEEQLVKAKEQIENYKKQTRNGLGKDHEILRRRIENGAKELWFFLQSELKKLKNLEGNELQRHADEFLLDLGHHERSIMTDLYYLSQTDGAGDWREKEAKDLTELVQRRITYLQNPKDCSKAKKLVCNINKGCGYGCQLHHVVYCFMIAYGTQRTLILESQNWRYATGGWETVFRPVSETCTDRSGISTGHWSGEVKDKNVQVVELPIVDSLHPRPPYLPLAVPEDLADRLVRVHGDPAVWWVSQFVKYLIRPQPWLEKEIEEATKKLGFKHPVIGVHVRRTDKVGTEAAFHPIEEYMVHVEEHFQLLARRMQVDKKRVYLATDDPSLLKEAKTKYPNYEFISDNSISWSAGLHNRYTENSLRGVILDIHFLSQADFLVCTFSSQVCRVAYEIMQTLHPDASANFHSLDDIYYFGGQNAHNQIAIYAHQPRTADEIPMEPGDIIGVAGNHWDGYSKGVNRKLGRTGLYPSYKVREKIETVKYPTYPEAEK [FUT8]	-0.188	-0.0307
MEPQVTLNVTFKNEIQSFLVSDPENTTWADIEAMVKVSFDLNTIQIKYLDEENEEVSINSQGEYEEALKMAVKQGNQLQMQVHEGHHVVDEAPPPVVGAKRLAARAGKKPLAHYSSLVRVLGSDMKTPEDPAVQSFPLVPCDTDQPQDKPPDWFTSYLETFREQVVNETVEKLEQKLHEKLVLQNPSLGSCPSEVSMPTSEETLFLPENQFSWHIACNNCQRRIVGVRYQCSLCPSYNICEDCEAGPYGHDTNHVLLKLRRPVVGSSEPFCHSKYSTPRLPAALEQVRLQKQVDKNFLKAEKQRLRAEKKQRKAEVKELKKQLKLHRKIHLWNSIHGLQSPKSPLGRPESLLQSNTLMLPLQPCTSVMPMLSAAFVDENLPDGTHLQPGTKFIKHWRMKNTGNVKWSADTKLKFMWGNLTLASTEKKDVLVPCLKAGHVGVVSVEFIAPALEGTYTSHWRLSHKGQQFGPRVWCSIIVDPFPSEESPDNIEKGMISSSKTDDLTCQQEETFLLAKEERQLGEVTEQTEGTAACIPQKAKNVASERELYIPSVDLLTAQDLLSFELLDINIVQELERVPHNTPVDVTPCMSPLPHDSPLIEKPGLGQIEEENEGAGFKALPDSMVSVKRKAENIASVEEAEEDLSGTQFVCETVIRSLTLDAAPDHNPPCRQKSLQMTFALPEGPLGNEKEEIIHIAEEEAVMEEEEDEEDEEEEDELKDEVQSQSSASSEDYIIILPECFDTSRPLGDSMYSSALSQPGLERGAEGKPGVEAGQEPAEAGERLPGGENQPQEHSISDILTTSQTLETVPLIPEVVELPPSLPRSSPCVHHHGSPGVDLPVTIPEVSSVPDQIRGEPRGSSGLVNSRQKSYDHSRHHHGSSIAGGLVKGALSVAASAYKALFAGPPVTAQPIISEDQTAALMAHLFEMGFCDRQLNLRLLKKHNYNILQVVTELLQLNNNDWYSQRY [NBR1]	-0.371	0.193
MGIQGLLQFIKEASEPIHVRKYKGQVVAVDTYCWLHKGAIACAEKLAKGEPTDRYVGFCMKFVNMLLSHGIKPILVFDGCTLPSKKEVERSRRERRQANLLKGKQLLREGKVSEARECFTRSINITHAMAHKVIKAARSQGVDCLVAPYEADAQLAYLNKAGIVQAIITEDSDLLAFGCKKVILKMDQFGNGLEIDQARLGMCRQLGDVFTEEKFRYMCILSGCDYLSSLRGIGLAKACKVLRLANNPDIVKVIKKIGHYLKMNITVPEDYINGFIRANNTFLYQLVFDPIKRKLIPLNAYEDDVDPETLSYAGQYVDDSIALQIALGNKDINTFEQIDDYNPDTAMPAHSRSHSWDDKTCQKSANVSSIWHRNYSPRPESGTVSDAPQLKENPSTVGVERVISTKGLNLPRKSSIVKRPRSAELSEDDLLSQYSLSFTKKTKKNSSEGNKSLSFSEVFVPDLVNGPTNKKSVSTPPRTRNKFATFLQRKNEESGAVVVPGTRSRFFCSSDSTDCVSNKVSIQPLDETAVTDKENNLHESEYGDQEGKRLVDTDVARNSSDDIPNNHIPGDHIPDKATVFTDEESYSFESSKFTRTISPPTLGTLRSCFSWSGGLGDFSRTPSPSPSTALQQFRRKSDSPTSLPENNMSDVSQLKSEESSDDESHPLREEACSSQSQESGEFSLQSSNASKLSQCSSKDSDSEESDCNIKLLDSQSDQTSKLRLSHFSKKDTPLRNKVPGLYKSSSADSLSTTKIKPLGPARASGLSKKPASIQKRKHHNAENKPGLQIKLNELWKNFGFKKDSEKLPPCKKPLSPVRDNIQLTPEAEEDIFNKPECGRVQRAIFQ [EXO1]	-0.442	0.136
MEGVELKEEWQDEDFPIPLPEDDSIEADILAITGPEDQPGSLEVNGNKVRKKLMAPDISLTLDPSDGSVLSDDLDESGEIDLDGLDTPSENSNEFEWEDDLPKPKTTEVIRKGSITEYTAAEEKEDGRRWRMFRIGEQDHRVDMKAIEPYKKVISHGGYYGDGLNAIVVFAVCFMPESSQPNYRYLMDNLFKYVIGTLELLVAENYMIVYLNGATTRRKMPSLGWLRKCYQQIDRRLRKNLKSLIIVHPSWFIRTLLAVTRPFISSKFSQKIRYVFNLAELAELVPMEYVGIPECIKQVDQELNGKQDEPKNEQ [BNIP2]	0.0256	-0.366
MSKGRAEAAAGAAGILLRYLQEQNRPYSSQDVFGNLQREHGLGKAVVVKTLEQLAQQGKIKEKMYGKQKIYFADQDQFDMVSDADLQVLDGKIVALTAKVQSLQQSCRYMEAELKELSSALTTPEMQKEIQELKKECAGYRERLKNIKAATNHVTPEEKEQVYRERQKYCKEWRKRKRMATELSDAILEGYPKSKKQFFEEVGIETDEDYNVTLPDP [PSMC3IP]	0.125	0.072
MALMQELYSTPASRLDSFVAQWLQPHREWKEEVLDAVRTVEEFLRQEHFQGKRGLDQDVRVLKVVKVGSFGNGTVLRSTREVELVAFLSCFHSFQEAAKHHKDVLRLIWKTMWQSQDLLDLGLEDLRMEQRVPDALVFTIQTRGTAEPITVTIVPAYRALGPSLPNSQPPPEVYVSLIKACGGPGNFCPSFSELQRNFVKHRPTKLKSLLRLVKHWYQQYVKARSPRANLPPLYALELLTIYAWEMGTEEDENFMLDEGFTTVMDLLLEYEVICIYWTKYYTLHNAIIEDCVRKQLKKERPIILDPADPTLNVAEGYRWDIVAQRASQCLKQDCCYDNRENPISSWNVKRARDIHLTVEQRGYPDFNLIVNPYEPIRKVKEKIRRTRGYSGLQRLSFQVPGSERQLLSSRCSLAKYGIFSHTHIYLLETIPSEIQVFVKNPDGGSYAYAINPNSFILGLKQQIEDQQGLPKKQQQLEFQGQVLQDWLGLGIYGIQDSDTLILSKKKGEALFPAS [OASL]	-0.811	0.156
ICE1	-0.864	0.51
PRR12	0.163	0.0459
KMT2C	0.137	-0.0115
MFRIEGLAPKLDPEEMKRKMREDVISSIRNFLIYVALLRVTPFILKKLDSI [TOMM5]	-0.518	-0.172
MKMEEAVGKVEELIESEAPPKASEQETAKEEDGSVELESQVQKDGVADSTVISSMPCLLMELRRDSSESQLASTESDKPTTGRVYESDSSNHCMLSPSSSGHLADSDTLSSAEENEPSQAETAVEGDPSGVSGATVGRKSRRSRSESETSTMAAKKNRQSSDKQNGRVAKVKGHRSQKHKERIRLLRQKREAAARKKYNLLQDSSTSDSDLTCDSSTSSSDDDEEVSGSSKTITAEIPDGPPVVAHYDMSDTNSDPEVVNVDNLLAAAVVQEHSNSVGGQDTGATWRTSGLLEELNAEAGHLDPGFLASDKTSAGNAPLNEEINIASSDSEVEIVGVQEHARCVHPRGGVIQSVSSWKHGSGTQYVSTRQTQSWTAVTPQQTWASPAEVVDLTLDEDSRRKYLL [C18ORF25]	-0.0209	-0.243
MRRDVNGVTKSRFEMFSNSDEAVINKKLPKELLLRIFSFLDVVTLCRCAQVSRAWNVLALDGSNWQRIDLFDFQRDIEGRVVENISKRCGGFLRKLSLRGCLGVGDNALRTFAQNCRNIEVLNLNGCTKTTDATCTSLSKFCSKLRHLDLASCTSITNMSLKALSEGCPLLEQLNISWCDQVTKDGIQALVRGCGGLKALFLKGCTQLEDEALKYIGAHCPELVTLNLQTCLQITDEGLITICRGCHKLQSLCASGCSNITDAILNALGQNCPRLRILEVARCSQLTDVGFTTLARNCHELEKMDLEECVQITDSTLIQLSIHCPRLQVLSLSHCELITDDGIRHLGNGACAHDQLEVIELDNCPLITDASLEHLKSCHSLERIELYDCQQITRAGIKRLRTHLPNIKVHAYFAPVTPPPSVGGSRQRFCRCCIIL [FBXL20]	-0.0856	-0.0226
MCAQYCISFADVEKAHINIRDSIHLTPVLTSSILNQLTGRNLFFKCELFQKTGSFKIRGALNAVRSLVPDALERKPKAVVTHSSGNHGQALTYAAKLEGIPAYIVVPQTAPDCKKLAIQAYGASIVYCEPSDESRENVAKRVTEETEGIMVHPNQEPAVIAGQGTIALEVLNQVPLVDALVVPVGGGGMLAGIAITVKALKPSVKVYAAEPSNADDCYQSKLKGKLMPNLYPPETIADGVKSSIGLNTWPIIRDLVDDIFTVTEDEIKCATQLVWERMKLLIEPTAGVGVAAVLSQHFQTVSPEVKNICIVLSGGNVDLTSSITWVKQAERPASYQSVSV [SRR]	0.0946	0.0667
MKRQSERDSSPSGRGSSSSAKRPREREREAEAGGRRAAHKASGGAKHPVPARARDKPRGSGSGGGGHRDGRGTGDANHRASSGRSSGSGAGGGGRGGKASGDPGASGMSPRASPLPPPPPPPGAEPACPGSSAAAPEYKTLLISSLSPALPAEHLEDRLFHQFKRFGEISLRLSHTPELGRVAYVNFRHPQDAREARQHALARQLLLYDRPLKVEPVYLRGGGGSSRRSSSSSAAASTPPPGPPAPADPLGYLPLHGGYQYKQRSLSPVAAPPLREPRARHAAAAFALDAAAAAAVGLSRERALDYYGLYDDRGRPYGYPAVCEEDLMPEDDQRATRNLFIGNLDHSVSEVELRRAFEKYGIIEEVVIKRPARGQGGAYAFLKFQNLDMAHRAKVAMSGRVIGRNPIKIGYGKANPTTRLWVGGLGPNTSLAALAREFDRFGSIRTIDHVKGDSFAYIQYESLDAAQAACAKMRGFPLGGPDRRLRVDFAKAEETRYPQQYQPSPLPVHYELLTDGYTRHRNLDADLVRDRTPPHLLYSDRDRTFLEGDWTSPSKSSDRRNSLEGYSRSVRSRSGERWGADGDRGLPKPWEERRKRRSLSSDRGRTTHSPYEERSRTKGSGQQSERGSDRTPERSRKENHSSEGTKESSSNSLSNSRHGAEERGHHHHHHEAADSSHGKKARDSERNHRTTEAEPKPLEEPKHETKKLKNLSEYAQTLQLGWNGLLVLKNSCFPTSMHILEGDQGVISSLLKDHTSGSKLTQLKIAQRLRLDQPKLDEVTRRIKQGSPNGYAVLLATQATPSGLGTEGMPTVEPGLQRRLLRNLVSYLKQKQAAGVISLPVGGSKGRDGTGMLYAFPPCDFSQQYLQSALRTLGKLEEEHMVIVIVRDTA [RBM15B]	-0.311	0.504
PCBD2	-0.0388	0.0587
MTPWLGLIVLLGSWSLGDWGAEACTCSPSHPQDAFCNSDIVIRAKVVGKKLVKEGPFGTLVYTIKQMKMYRGFTKMPHVQYIHTEASESLCGLKLEVNKYQYLLTGRVYDGKMYTGLCNFVERWDQLTLSQRKGLNYRYHLGCNCKIKSCYYLPCFVTSKNECLWTDMLSNFGYPGYQSKHYACIRQKGGYCSWYRGWAPPDKSIINATDP [TIMP3]	-0.478	-0.0173
